From patent US6093692A, “Method and compositions for lipidization of hydrophilic molecules” (The University of Southern California, priority 1997, dated 2000)
Where two headings read alike, the source gives them in different places.

B1: BBI: a hydrophilic protein which has low uptake into cells and is not orally bioavailable (protein, UniProt P01055 40-110, looked up)
Bowman-Birk type proteinase …: DDESSKPCCDQCACTKSNPPQCRCSDMRLNSCHSACKSCICALSYPAQCFCVDITDFCYEPCKPSEDDKEN
B2: BBIssOleic: the oleic acid conjugated BBI (conjugate, UniProt P01055 40-110, looked up)
Bowman-Birk type proteinase …: B1 Bowman-Birk type proteinase …
modifications: oleyl disulfide conjugate; 125I
notes: the oleic acid conjugated BBI

Assays:
[1] = tested on: C3H 10T1/2 cells; test: Plating efficiency; format: cell-based
Description: The plating efficiency (PE) of the cells was also studied in conjunction with each of the transformation assays. To determine the PE of the cells in the different treatment groups, cells (200 cells/dish) were seeded into three 60-mm petri dishes per experiment group and treated in the identical manner as the transformation assay cells. The cells in these assays were terminated at 10 days, fixed with 100% methanol, and stained with giemsa; the colonies of 50 cells or more visible under a microscope were then counted. The plating efficiency is defined as the (number of colonies/number of cells seeded)×100%.

[2] = tested on: C3H 10T1/2(clone 8) cells; test: In vitro transformation assay (MCA-induced); format: cell-based; details: for Transformed foci / Fraction of dishes containing transformed foci / No. of dishes with transformed foci/No. of dishes: MCA 1 μg/ml 24 hr, conjugates 1.0 μg/ml first three weeks; for Fraction of dishes containing transformed foci / No. of dishes with transformed foci/No. of dishes: scored at six weeks
Description: Transformation assays were carried out using C3H 10T1/2(clone 8) cells according to the published recommendations [Reznikoff, C. A., et al., Cancer. Res., 33:3239-3249 (1973); Reznikoff, C. A., et al., Cancer. Res., 33:3231-3238 (1973)]. Stock cultures of mycoplasma-free cells were maintained by passing 50,000 cells per 75 cm^2 flask every seven days. Using this schedule, the cells were always passed approximately 2 days before reaching confluence. The stock culture was grown in Eagle's basal medium supplemented with 10% FBS, penicillin (100 units), and streptomycin (100 μg) and used for the transformation assays at passages of 9 to 14. The cells were passed by treating the stock cells with trypsin (0.1%) in PBS for 5 min and quenching the trypsin with 5 ml of the medium. This procedure was adapted to minimize spontaneous transformation in the stock cultures and maximize the plating efficiency in the petri dishes. The FBS stock used in the cultures was pre-screened to ensure that the serum was able to support the expression and the growth of the transformed cells.
For the transformation assays, C3H 10T1/2 cells (1000/dish) were seeded into 60 mm petri dishes and allowed to grow in a humidified 5% CO2 atmosphere in Eagle's basal medium, supplemented with 10% FBS, penicillin (100 units), and streptomycin (100 μg), for 24 hr. Subsequently, the cells were initiated by treatment with 25 μl of the 3-methylcholanthrene (MCA) in acetone stock solution ([…]) to a final concentration of 1 μg/ml of MCA (5 μg/5 ml). The cells were allowed to grow in the presence of the carcinogen or solvent for 24 hr, and the medium in each dish was then replaced with fresh medium containing no carcinogen or solvent. The medium in the dishes was replaced twice per week for the first two weeks of the assay, and thereafter once a week for the remainder four weeks of the assay. In the experiments designed to determine the transformation inhibitory activity of the conjugates, the cells were maintained in the medium containing the conjugates (1 μg/ml) for the first three weeks of the assay; thereafter, the cells were maintained in medium containing no added conjugates.
Six weeks after the carcinogen treatment, the cells were inspected under a microscope for adherence to the culture dishes and were washed with PBS and then fixed in 100% methanol. The fixed monolayers were then stained with Giemsa stain. Twenty dishes per group were treated in each experiment. In addition to the test groups, all the transformation assays contained at least three other groups: negative control (not treated with carcinogen or solvent), acetone control (treated with 25 μl of acetone), and positive control [treated with MCA (1 μg/ml) in 25 μl of acetone]. The transformed foci (>3 mm in diameter) in the plates were studied under a microscope and classified according to published guidelines as types I, II, or III [Landolph, J. R., Transfomatin assay of established cell lines: Mechanism and Application (ed. Kakunaga, T., and Yamasaki, H.) IARC Scientific Publications, Lyon, France pp. 185-201 (1985)]. Briefly, type III foci were dense, multilayered, basophilic, areas of cell growth which stained to a deep blue color with Giemsa and had rough crisscrossed edges. Type II foci were also dense, multilayered, areas of cell growth, but were stained to a purple color with Giemsa and had smoother, more defined edges compared to Type III foci. Type I foci were not scored in the assay.
BBI, either as the free protein or in conjugated form to palmitic or oleic acid, was added to the cultures at 1.0 μg/ml for the first three weeks of the transformation assay period starting immediately after the MCA treatment. MCA-treated cells were exposed to 3-methylcholanthrene, dissolved in 25 μl of acetone, at a concentration of 1 μg/ml for 24 hr. Acetone-treated cells were exposed to 25 μl of acetone for 24 hr only. […]

[3] = tested on: Caco-2 cells; format: cell-based, Human
Description: Human colon carcinoma cells (Caco-2) were detached from 25 cm^2 stock culture flasks using a 10 min incubation at 37° C. with 0.5 ml of a trypsin/EDTA solution (0.5% trypsin, 5.3 mM EDTA). The cells were then suspended in 5 ml of Dulbecco's minimum essential medium, supplemented with 15% fetal bovine serum (FBS), L-glutamine (1%), and essential amino acids (1%), and counted using a coulter counter.
Radioiodination of BBI and BBIssPal was carried out using the chloramine-T method [McConahey, P. C. and Dixon, F. J., Meth. Enzymol., 70:221-247 (1980)]. Confluent, 14-day old cell monolayers were washed once with, and then incubated in, serum-free Dulbecco medium at 37° C. for 30 min. Subsequently, the incubation medium was replaced with serum free medium containing ^125 I-BBI (10 μg/ml), either as native-BBI or as BBIssPal or BBIssOleic, and the monolayers were incubated for a further 60 min at 37° C. The monolayers were then washed three times with ice-cold PBS, and then exposed to trypsin (0.5%, EDTA 5.3 mM) for 10 min at 37° C. The detached cells were transferred to tubes, isolated by centrifugation, washed three times using ice-cold PBS, assayed for accumulated radioactivity using a gamma counter, and finally assayed for cell protein using the published method [Lowry, O. H., et al., J. Biol. Chem., 193:265-275 (1951)].
In some experiments the uptake of reduced ^125 I-BBIssPal into cells was determined. ^125 I-BBIssPal was reduced with DTT (50 mM) at 60° C. for 5 min followed by a further 25 min at 37° C. In control experiments, ^125 I-BBIssPal was exposed in medium to the same temperatures without being exposed to DTT.
The uptake of ^125 I-BBIssPal in the presence of BSA (fatty acid free) was determined as follows. ^125 I-BBIssPal was incubated with medium containing 0.1% BSA for 30 min at 37° C. before being added to the cell monolayers. In some uptake experiments, BSA was first mixed with a 3-fold molar excess of palmitic acid, and then incubated with the conjugates prior to the experiments. In the experiments where the uptake of ^125 I-BBIssPal was determined in medium containing FBS, the conjugates was simply added to the medium containing the required amount of FBS.
The cell monolayers were incubated with ^125 I-labeled conjugates at 10 μg/ml for 60 min at 37° C. The results presented are the average of three monolayers ±SEM. The uptake experiments were carried out in Dulbecco medium, in the presence and absence of added FBS.
The cell uptake of ^125 I-BBI, either as the native protein or as BBIssPal was determined before and after reduction with DTT (50 mM) for 5 min at 60° C. and 25 min at 37° C.
The uptake experiments were carried out in Dulbecco medium, in the presence and absence of added fatty acid-free BSA (BSA) or fatty acid-loaded BSA (BSA/FA). The results of studies of the uptake of ^125 I-BBI, either as the native-BBI or in conjugated form to palmitic or oleic acid, in Caco-2 cells in the presence of serum-free medium are presented in FIG. 1. The results are shown as the average ng of BBI internalized ±SEM, n=3. The uptake of ^125 I-BBIssPal into the cells was approximately 100-fold higher than that of ^125 I-BBI. […] The difference between the uptake of ^125 I-BBIssPal and ^125 I-BBIssOleic were significant.

[4] = design: species or system CF-1 mice; details: mouse, in vivo, iv, 3 mg/kg
Description: Female CF-1 mice, […], weighing 20-25 g each, with free access to food and water prior to the experiments, were used for the animal experiments. ^125 I-BBI (3 mg/kg), as native-BBI or as BBIssPal or BBIssOleic conjugate, was administered to the animals via the tail vein. At 0.5, 3, and 24 hr post-injection, 3 animals from each experiment group were sacrificed and their blood (200 μl), the kidneys, the lungs, and the liver were removed, rinsed in ice-cold PBS, and assayed for accumulated radioactivity. The weights of the organs were recorded and used to adjust the concentration of the conjugates in the organs.

Molecule	Plating Efficiency ([1]; 200 cells/dish, 10 days, treated as in the transformation assay) [%]	Transformed foci [2]	Fraction of dishes containing transformed foci [2]	No. of dishes with transformed foci/No. of dishes [2]	Effect of fatty acid-loaded BSA on uptake [3]	Reduction of uptake after reduction with DTT [3]	Reduction of uptake by defatted-BSA [3]	Plating Efficiency [1] [%]	Blood levels and removal from circulation [4]	Kidney accumulation [4]	Uptake, fold higher than that of BBI [3]	Blood levels, fold higher than BBI [4]	Kidney clearance, fold lower than native-BBI [4]	Liver accumulation, fold higher than BBI [4]	Lung accumulation/levels, fold higher than BBI [4]	Retention in the liver [4]	Retention of anti-transformation activity of BBI ([2]; 1.0 μg/ml)
Cc1ccc2cc3c(ccc4ccccc43)c3c2c1CC3 [MCA, 3-methylcholanthrene, reference compound]	21 ± 3.0	6 out of the 19 dishes scored contained type III foci	0.32	6/19													
B1		no transformed foci	0	0/20	not affected	did not cause a reduction in the uptake	not affected	24 ± 2.0	rapidly excreted from the body without attaining high blood levels	rapidly accumulated in the kidneys							
B2		no transformed foci	0	0/20				24 ± 3.5	higher blood levels than BBI		about 108 fold	about 4 fold	about 4 fold	about 4 fold	about 2 fold	significant levels of the conjugate present in the liver even at 24 hr post-injection	retained the original biological activity of BBI
